Data published in doi:10.1101/2021.04.02.438172.
Values belong to the substance of their own block, whether it stands above or below them.

Assays:
[1] = biological target: wild-type Sandercyanin (Stizostedion vitreum (formerly Sander vitreus), walleye); assay: SEC
[2] = biological target: Sandercyanin His-108-Ala (Stizostedion vitreum (formerly Sander vitreus), walleye)
[3] = biological target: Sandercyanin Tyr-142-Ala (Y142A) (Stizostedion vitreum (formerly Sander vitreus), walleye)
[4] = biological target: Sandercyanin Phe-106-Ala (Stizostedion vitreum (formerly Sander vitreus), walleye)

stoichiometry N [1]: 4
Substance: wild-type Sandercyanin (natural protein)

stoichiometry N [2]: 4
Substance: Sandercyanin His-108-Ala (natural protein)

stoichiometry N [3]: 4
Substance: Sandercyanin Tyr-142-Ala (Y142A) (natural protein)

stoichiometry N [4]: 4
Substance: Sandercyanin Phe-106-Ala (natural protein)
